# Laboratory results as given in paper PMC6768651, “A ubiquitin-like domain controls protein kinase D dimerization and activation by trans-autophosphorylation” (The Journal of Biological Chemistry, 2019).
# Positions count from the first letter of the chain named. In names and notes the source's numbering stands.
# B1: DKF-1 ULD (DKF-1^1–94) [C. elegans] / Atto488-labeled DKF-1 ULD^R42C [modified: Atto488 (maleimide-conjugated) on cysteine 42; Atto488 (maleimide-conjugated) on cysteine 42] [C. elegans] (parent complex)
# chain 1: MDGSQGSTDYGDHVVLRYGGTREMVPLIRHEQMLDMLMERARQIVQGFGNLDTRNMYLFRHEYNSPTLLYPITSASQITSGSILEIILVDRTEA
# chain 2: B1 chain 1 with R42C
# Variants of: B1
# Test: fluorescence anisotropy; highest titration point: ULD F59E about 27 µM; parent value is the highest ULD WT point, about 20 µM; parent: 0.024; read off a plot
row,response,Variant
1,~0.003,chain 1 MDGSQGSTDYGDHVVLRYGGTREMVPLIRHEQMLDMLMERARQIVQGFGNLDTRNMYLERHEYNSPTLLYPITSASQITSGSILEIILVDRTEA [chain 1 F59E]
